According to US20090238791A1 (INSTITUT NATIONAL DE LA SANTE ET DE LA RECHERCHE MEDICALE …, published 2009):

B1: sIL-15Rα-sushi (receptor)
chain: ITCPPPMSVEHADIWVKSYSLYSRERYICNSGFKRKAGTSSLTECVLNKATNVAHWTTPSLKCIRD
notes: also called soluble sushi domain; not shown: Vector-encoded tag of pQE30; The protein was trapped on Ni-NTA agarose
B2: sIL-15Rα-Sushi+ (receptor)
chain: ITCPPPMSVEHADIWVKSYSLYSRERYICNSGFKRKAGTSSLTECVLNKATNVAHWTTPSLKCIRDPALVHQRPAPP
notes: Expressed in SF9 insect cells; No sentence names it for Sushi+; also called Sushi15+; Flag-Factor Xa tagged sIL-15Rα-Sushi+; not shown: Flag-Factor Xa tag

Tests used:
Recombinant human IL-15 [1] = target: T1, Recombinant human IL-15 (human, UniProt P40933 49-162); experiment: cell-based or functional assay
T1 sequence (P40933 49-162 limits assumed): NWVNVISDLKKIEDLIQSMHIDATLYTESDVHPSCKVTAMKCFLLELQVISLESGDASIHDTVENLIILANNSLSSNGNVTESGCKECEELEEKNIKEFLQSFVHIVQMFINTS

Recombinant human IL-15 [2] = target: T1, Recombinant human IL-15; experiment: Competition with 125I-rIL-15 (200 pM) binding to IL-15Rα on TF-1 cells
Procedure: The three soluble forms of IL-15Rα were tested for their ability to compete out the binding of radio-iodinated IL-15 to IL-15Rα expressed by the human cell line TF-1 which also expresses the IL-15Rγ chain, but not the IL-15Rβ chain (FIG. 1D).

[3] = target: T2, IL-15Rβ/γ complex (intermediate affinity receptor), human (human, UniProt P14784 27-551; P31785 23-369); experiment: 125I-sIL-15Rα-sushi saturation binding to TF-1β cells in the presence of 1 nM rIL-15
T2 construct: whole, on cells; Found on Mo-7 cells, which express IL-15Rβ/γ but not IL-15Rα; also called IL-15Rbeta/gamma; IL-2Rβ/γ
T2 sequence (P14784 whole entry, chain 1 of 2): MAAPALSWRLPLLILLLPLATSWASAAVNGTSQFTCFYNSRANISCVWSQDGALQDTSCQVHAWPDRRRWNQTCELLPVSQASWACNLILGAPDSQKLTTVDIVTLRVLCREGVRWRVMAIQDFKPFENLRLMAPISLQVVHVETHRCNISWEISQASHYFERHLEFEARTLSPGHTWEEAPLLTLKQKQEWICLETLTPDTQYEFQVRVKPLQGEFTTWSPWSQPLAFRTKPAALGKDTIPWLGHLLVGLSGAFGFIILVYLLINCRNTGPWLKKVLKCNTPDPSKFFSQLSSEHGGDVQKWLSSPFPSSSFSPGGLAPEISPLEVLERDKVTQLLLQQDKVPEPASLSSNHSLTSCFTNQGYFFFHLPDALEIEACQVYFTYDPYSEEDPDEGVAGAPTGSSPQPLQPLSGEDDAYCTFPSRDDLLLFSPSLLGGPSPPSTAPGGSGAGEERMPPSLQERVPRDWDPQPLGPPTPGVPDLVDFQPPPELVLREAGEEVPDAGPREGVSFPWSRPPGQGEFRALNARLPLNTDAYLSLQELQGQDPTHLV
T2 sequence (P31785 whole entry, chain 2 of 2): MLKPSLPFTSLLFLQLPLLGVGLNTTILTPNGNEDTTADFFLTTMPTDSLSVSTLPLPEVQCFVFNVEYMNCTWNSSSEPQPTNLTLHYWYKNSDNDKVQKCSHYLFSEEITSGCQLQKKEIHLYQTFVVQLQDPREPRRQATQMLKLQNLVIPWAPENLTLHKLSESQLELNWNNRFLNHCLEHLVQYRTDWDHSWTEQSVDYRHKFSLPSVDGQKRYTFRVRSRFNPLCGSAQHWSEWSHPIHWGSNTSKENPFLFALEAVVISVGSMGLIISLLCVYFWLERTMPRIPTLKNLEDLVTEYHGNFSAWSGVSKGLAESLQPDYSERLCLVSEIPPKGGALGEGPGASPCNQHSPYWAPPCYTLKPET
Procedure: Labeling with [¹²⁵I]-iodine of human rIL-15, sIL-15Rα-sushi and RLI fusion protein, and subsequent binding experiments were performed as described previously (19). For internalization, cells were equilibrated at 4° C. with labeled sIL-15Rα-sushi or RLI, and the temperature switched to 37° C. At different time intervals, two samples were washed and centrifuged. One of the cell pellets was treated with glycine-HCl buffer 0.2 M, pH 2.5, whereas the other was treated with PBS pH 7.4 at 4° C. for 5 min. After centrifugation, total ligand binding was determined from the pellet of the cells treated with PBS, whereas the membrane bound and internalized fractions were determined respectively from the supernatant and pellet of cells treated with acid pH.
As further shown in FIG. 6D, the radiolabeled sIL-15Rα-sushi was efficiently internalized. Radiolabeled RLI fusion protein also bound to TF1β cells (FIG. 6E). […] Once bound, the RLI was also efficiently internalized (FIG. 6F).

Recombinant human IL-15 [4] = target: T1, Recombinant human IL-15; experiment: SPR, BIAcore 2000
Procedure: (§1) These experiments were performed with a BIACore 2000 biosensor (BIACore, Uppsala, Sweden). rIL-15 was covalently linked to CM5 sensor chips, and the binding of increasing concentrations of sIL-15Rα-IL-2, sIL-15Rα-sushi-IL-2 or sIL-15Rα-sushi was monitored. Analysis of sensograms was performed using BIAlogue kinetics evaluation software.

Recombinant human IL-15 [5] = target: T1, Recombinant human IL-15; experiment: SPR
Recombinant human IL-15 [6] = target: T1, Recombinant human IL-15; experiment: SPR, analysis of sensorgrams
Procedure: as §1

| IC50 of the potentiation of Mo-7 proliferation driven by a fixed concentration of rIL-15 (1 nM) (Recombinant human IL-15 [1]) [nM] | IC50 (Recombinant human IL-15 [2]) [nM] | Kd [3] [nM] | Kd (Recombinant human IL-15 [4]) [nM] | koff (Recombinant human IL-15 [4]) [s⁻¹] | kon (Recombinant human IL-15 [4]) [M⁻¹ s⁻¹] | fold increase in binding affinity compared to sIL-15Rα-Sushi-IL-2 (Recombinant human IL-15 [5]) [fold] | fold lower affinity than the full length soluble IL-15Rα (Recombinant human IL-15 [5]) [fold] | Kd (Recombinant human IL-15 [6]) [nM] | Binder |
| --- | --- | --- | --- | --- | --- | --- | --- | --- | --- |
| 3.5 | 1.3 | 3.5 | 1.5 | 0.00038 | 250000 | – | – | – | B1 |
| – | – | – | – | – | – | 4 | 3 | 0.102 | B2 |
